In patent US20140274782A1, “AFFINITY REAGENTS AND METHODS FOR DETECTION, PURIFICATION, AND PROTEOMIC ANALYSIS OF METHYLATED PROTEINS” (The Board of Trustees of the Leland Stanford Junior …, priority 2013, published 2014):

How the values were obtained:
G9a and GLP = biological target: T1, G9a and GLP (Homo sapiens, UniProt Q96KQ7+Q9H9B1); assay: Triple SILAC pull-down after UNC0638 treatment of 293T cells, DMSO/UNC0638 ratio of protein captured by 3×MBT; format: cell-based; conditions: for Relative to UNC0638 UNC Heavy: UNC0638 in heavy SILAC media; for Relative to UNC0638 UNC Light: UNC0638 in light SILAC media; for Relative to UNC0638 Average: average of UNC Light and UNC Heavy experiments;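 for all read-outs here: mass spectrometry (Q-Exactive) SILAC quantitation, DMSO/UNC0638 ratio computed after subtracting 3×MBTD355N mutant pull-down background, only proteins with at least twofold 3×MBT over mutant signal considered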
T1 construct: endogenous in cells; host or cells: HEK 293T
T1 sequence (Q96KQ7 2-1210 limits assumed): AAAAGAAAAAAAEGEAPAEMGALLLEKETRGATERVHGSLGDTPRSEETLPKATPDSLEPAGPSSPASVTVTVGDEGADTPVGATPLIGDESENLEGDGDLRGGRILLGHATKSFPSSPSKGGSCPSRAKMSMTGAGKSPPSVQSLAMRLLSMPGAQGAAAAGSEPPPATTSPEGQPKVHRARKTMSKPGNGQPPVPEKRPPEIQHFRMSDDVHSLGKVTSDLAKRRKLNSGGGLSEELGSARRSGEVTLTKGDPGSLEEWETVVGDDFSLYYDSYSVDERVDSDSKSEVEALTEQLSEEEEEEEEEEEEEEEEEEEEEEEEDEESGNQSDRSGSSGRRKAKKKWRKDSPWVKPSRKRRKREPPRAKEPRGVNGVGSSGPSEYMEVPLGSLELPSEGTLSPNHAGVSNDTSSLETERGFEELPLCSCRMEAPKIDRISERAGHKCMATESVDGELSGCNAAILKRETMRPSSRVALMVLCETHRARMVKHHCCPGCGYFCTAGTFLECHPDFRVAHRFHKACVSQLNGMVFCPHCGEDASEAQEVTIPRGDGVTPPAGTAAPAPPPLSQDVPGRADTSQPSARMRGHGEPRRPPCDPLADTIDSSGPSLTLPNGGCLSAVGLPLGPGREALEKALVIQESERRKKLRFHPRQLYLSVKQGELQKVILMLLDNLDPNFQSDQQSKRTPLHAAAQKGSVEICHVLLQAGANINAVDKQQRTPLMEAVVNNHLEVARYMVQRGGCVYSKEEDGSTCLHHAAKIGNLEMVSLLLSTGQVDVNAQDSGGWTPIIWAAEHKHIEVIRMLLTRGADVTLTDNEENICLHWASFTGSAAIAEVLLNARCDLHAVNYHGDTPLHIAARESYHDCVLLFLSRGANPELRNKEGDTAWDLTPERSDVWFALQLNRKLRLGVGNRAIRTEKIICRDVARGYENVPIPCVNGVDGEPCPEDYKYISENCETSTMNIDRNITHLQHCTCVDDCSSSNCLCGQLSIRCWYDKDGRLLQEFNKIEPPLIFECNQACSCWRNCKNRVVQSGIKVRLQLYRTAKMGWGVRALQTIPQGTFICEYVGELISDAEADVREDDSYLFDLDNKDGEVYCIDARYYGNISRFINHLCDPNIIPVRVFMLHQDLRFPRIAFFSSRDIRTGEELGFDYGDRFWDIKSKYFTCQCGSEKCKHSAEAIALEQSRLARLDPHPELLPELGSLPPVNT
T1 sequence (Q9H9B1 2-1298 limits assumed): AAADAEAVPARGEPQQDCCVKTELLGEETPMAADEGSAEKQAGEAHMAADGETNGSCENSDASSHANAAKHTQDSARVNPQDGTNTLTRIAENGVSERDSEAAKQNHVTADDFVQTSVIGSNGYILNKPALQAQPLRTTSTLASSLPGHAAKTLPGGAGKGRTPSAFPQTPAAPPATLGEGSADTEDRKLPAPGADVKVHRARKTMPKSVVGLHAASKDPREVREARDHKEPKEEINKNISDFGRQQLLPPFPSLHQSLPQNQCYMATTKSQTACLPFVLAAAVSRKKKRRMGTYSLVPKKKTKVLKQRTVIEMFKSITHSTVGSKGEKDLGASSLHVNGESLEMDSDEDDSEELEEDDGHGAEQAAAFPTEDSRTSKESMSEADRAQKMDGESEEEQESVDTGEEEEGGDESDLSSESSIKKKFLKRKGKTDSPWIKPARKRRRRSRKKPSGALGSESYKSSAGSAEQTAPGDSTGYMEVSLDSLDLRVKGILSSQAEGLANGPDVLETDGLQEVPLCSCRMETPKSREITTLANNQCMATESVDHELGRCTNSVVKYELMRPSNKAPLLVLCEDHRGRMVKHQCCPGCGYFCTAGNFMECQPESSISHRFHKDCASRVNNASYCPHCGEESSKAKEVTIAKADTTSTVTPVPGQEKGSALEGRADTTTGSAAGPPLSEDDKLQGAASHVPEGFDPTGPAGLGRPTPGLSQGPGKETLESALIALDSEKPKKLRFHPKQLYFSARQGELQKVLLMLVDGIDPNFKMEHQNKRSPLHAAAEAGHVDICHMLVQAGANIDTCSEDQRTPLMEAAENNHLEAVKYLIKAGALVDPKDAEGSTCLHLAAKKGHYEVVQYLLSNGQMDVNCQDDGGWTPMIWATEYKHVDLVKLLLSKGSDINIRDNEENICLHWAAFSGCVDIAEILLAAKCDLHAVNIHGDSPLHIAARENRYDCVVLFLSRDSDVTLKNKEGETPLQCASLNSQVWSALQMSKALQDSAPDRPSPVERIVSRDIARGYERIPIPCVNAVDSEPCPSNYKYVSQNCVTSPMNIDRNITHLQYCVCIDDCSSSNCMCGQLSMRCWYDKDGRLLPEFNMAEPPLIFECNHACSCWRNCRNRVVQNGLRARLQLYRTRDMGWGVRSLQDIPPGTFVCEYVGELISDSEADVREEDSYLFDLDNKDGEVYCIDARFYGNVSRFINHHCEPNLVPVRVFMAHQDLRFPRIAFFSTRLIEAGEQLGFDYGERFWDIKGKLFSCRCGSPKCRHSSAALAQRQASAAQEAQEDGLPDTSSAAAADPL

3×MBT domain of L3MBTL1 = assay: Triple SILAC pull-down, 3xMBT/3xMBTD355N ratio (cytoplasmic, nuclear and chromatin fractions of 293T cells); format: binding, human; conditions: for 3xMBT/D355N UNC Heavy: experiment with UNC0638 in heavy SILAC media; for 3xMBT/D355N UNC Light: experiment with UNC0638 in light SILAC media;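 for all read-outs here: proteins quantified with MaxQuant, requiring at least two unique peptides and quantification in both label directions, normalized to the mean of proteins from a digested loading control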
[1] = SILAC ratio DMSO relative to UNC0638, pull-down with 3xMBT, all values in log base 2
[2] = SILAC ratio 3xMBT vs 3xMBTD355N pull-down, 293T cells, all values in log base 2
[3] = SILAC ratio DMSO/UNC0638 of protein pulled down with 3xMBT
[4] = SILAC ratio, pull-down 3xMBT vs 3xMBTD355N

Row | Substance | Relative to UNC0638 UNC Heavy (G9a and GLP; [1]) [log base 2] | Relative to UNC0638 UNC Light (G9a and GLP; [1]) [log base 2] | Relative to UNC0638 Average (G9a and GLP; all values in log base 2) [log base 2] | 3xMBT/D355N UNC Heavy (3×MBT domain of L3MBTL1; [2]) [log base 2] | 3xMBT/D355N UNC Light (3×MBT domain of L3MBTL1; [2]) [log base 2] | Relative to UNC0638 UNC Heavy (G9a and GLP; [3]) [log base 2] | Relative to UNC0638 UNC Light (G9a and GLP; [3]) [log base 2] | Relative to UNC0638 Average (G9a and GLP) [log base 2] | 3xMBT/D355N UNC Heavy (3×MBT domain of L3MBTL1; [4]) [log base 2] | 3xMBT/D355N UNC Light (3×MBT domain of L3MBTL1; [4]) [log base 2] | Candidate G9a/GLP target (G9a and GLP; reduced association with 3xMBT after UNC0638 treatment)
1 | EPRS | −0.64 | 0.63 | −0.01 | 0.46 | 1.98 |  |  |  |  |  | 
2 | EEF1G | −0.03 | −0.77 | −0.40 | −0.67 | −0.28 |  |  |  |  |  | 
3 | DHX9 |  |  |  |  |  | 0.08 | 0.28 | 0.18 | 3.27 | 3.53 | 
4 | MCM6 |  |  |  |  |  | 0.10 | 0.26 | 0.18 | 2.48 | 2.53 | 
5 | FERMT2 | −1.93 | −0.07 | −1.00 | 3.33 | 1.42 |  |  |  |  |  | 
6 | PCBP1 |  |  |  |  |  | 0.11 | 0.19 | 0.15 | 2.16 | 2.49 | 
7 | PSIP1 |  |  |  |  |  | 0.17 | 0.15 | 0.16 | 2.72 | 2.92 | 
8 | GAPDH | 0.14 | −0.24 | −0.05 | 1.86 | 1.59 |  |  |  |  |  | 
9 | NUMA1 |  |  |  |  |  | 0.90 | −0.32 | 0.29 | 0.83 | 3.33 | 
10 | MPG |  |  |  |  |  | 0.52 | −0.04 | 0.24 | 1.39 | 1.87 | 
11 | FXR1 |  |  |  |  |  | 1.23 | −1.01 | 0.11 | 1.60 | 1.73 | 
12 | RDBP | 0.32 | −0.12 | 0.10 | 2.37 | 2.82 |  |  |  |  |  | 
13 | CORO1C |  |  |  |  |  | 0.07 | 0.26 | 0.17 | 2.83 | 3.30 | 
14 | TUBB4B |  |  |  |  |  | 0.42 | 0.03 | 0.23 | 1.05 | 1.75 | 
15 | PABPC1 |  |  |  |  |  | 0.04 | 0.26 | 0.15 | 2.91 | 3.44 | 
16 | RECQL |  |  |  |  |  | 0.71 | 0.21 | 0.46 | 3.43 | 5.03 | ✓
17 | ABCF1 | 0.22 | −0.04 | 0.09 | 2.36 | 2.94 |  |  |  |  |  | 
